Data on one substance can be found in patent US20250277031A1.

Assay [1] concerns the target rat CD47 on rat red blood cells (rat) (UniProt P97829). As to the kind of experiment: flow cytometry on rat RBCs. A general note: In flow cytometry, cells or beads pass a laser one at a time.
Assay [2] concerns the target mouse CD47 on mouse red blood cells (mouse) (UniProt Q61735). As to the kind of experiment: flow cytometry on mouse RBCs.
In assay [3] the target is cynomolgus CD47 on cynomolgus red blood cells (cynomolgus). As to the kind of experiment: flow cytometry on cynomolgus RBCs.
In assay [4] the target is human CD47 on human red blood cells (human) (UniProt Q08722). As to the kind of experiment: flow cytometry on human RBCs.

Chain of mouse CD47 on mouse red blood cells (mouse) (Q61735 19-303): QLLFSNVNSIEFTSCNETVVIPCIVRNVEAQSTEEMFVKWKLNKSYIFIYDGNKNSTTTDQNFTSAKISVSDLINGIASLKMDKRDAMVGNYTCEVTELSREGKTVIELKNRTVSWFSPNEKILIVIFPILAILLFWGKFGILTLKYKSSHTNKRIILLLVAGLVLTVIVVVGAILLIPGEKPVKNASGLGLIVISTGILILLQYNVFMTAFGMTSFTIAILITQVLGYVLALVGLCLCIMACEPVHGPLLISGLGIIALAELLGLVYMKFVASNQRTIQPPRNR
Chain of rat CD47 on rat red blood cells (rat) (P97829 19-303): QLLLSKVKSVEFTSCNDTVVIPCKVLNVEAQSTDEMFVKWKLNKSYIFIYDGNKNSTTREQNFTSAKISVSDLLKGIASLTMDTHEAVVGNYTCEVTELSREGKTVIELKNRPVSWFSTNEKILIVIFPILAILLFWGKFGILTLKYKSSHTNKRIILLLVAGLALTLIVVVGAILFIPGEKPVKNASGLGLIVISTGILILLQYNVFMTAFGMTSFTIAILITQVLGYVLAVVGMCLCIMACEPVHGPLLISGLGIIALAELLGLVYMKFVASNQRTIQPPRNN

Take Isotype control (antibody): the MFI in assay [1] was 3.33; in assay [2], 3.21; in assay [3], 3.95; in assay [4] it was 3.65.
